# Experimental data as given in the Immune Epitope Database (IEDB).
# Legend:
# Test in all cases: IEDB peptide-MHC binding, purified MHC/direct/fluorescence; filed as Kd, often an IC50 or EC50 that approximates it; ≥ and ≤ were set here for values at or beyond the usual limits of such assays
# HLA-B*27:05 = settings: source organism: Yersinia enterocolitica
# HLA-B*73:01 = settings: source organism: Yersinia enterocolitica
# HLA-B*48:01 = settings: source organism: Yersinia enterocolitica
# HLA-A*02:03 = target: HLA-A*02:03
# HLA-B*18:01 = target: HLA-B*18:01
# HLA-A*02:11 = target: HLA-A*02:11
# HLA-B*57:01 = target: HLA-B*57:01
# HLA-A*02:01 = target: HLA-A*02:01
# HLA-B*46:01 = target: HLA-B*46:01
# HLA-B*27:03 = target: HLA-B*27:03
# HLA-B*35:01 = settings: source organism: Mycobacterium tuberculosis str. Haarlem
# HLA-A*02:12 = target: HLA-A*02:12
# HLA-A*03:01 = target: HLA-A*03:01
# HLA-B*07:02 = settings: source organism: Mycobacterium tuberculosis str. Haarlem
# HLA-A*29:02 = target: HLA-A*29:02
# HLA-A*02:16 = target: HLA-A*02:16
# HLA-A*24:03 = target: HLA-A*24:03
# HLA-A*26:01 = target: HLA-A*26:01
# HLA-B*39:01 = settings: source organism: Mycobacterium tuberculosis str. Haarlem
# HLA-B*51:01 = target: HLA-B*51:01
# HLA-A*02:19 = target: HLA-A*02:19
# HLA-B*15:01 = target: HLA-B*15:01
# HLA-B*15:17 = settings: source organism: Cryptosporidium parvum Iowa II
# HLA-A*68:02 = settings: source organism: Cryptosporidium parvum Iowa II
# HLA-A*69:01 = settings: source organism: Cryptosporidium parvum Iowa II
# [1] = source organism: Mycobacterium tuberculosis str. Haarlem
# [2] = source organism: Cryptosporidium parvum Iowa II
sequence,measurement,setting,value
YRLVSAVEK,Kd,HLA-B*27:05,0.0299 µM
same,Kd,HLA-B*73:01,≥ 20 µM
same,Kd,HLA-B*48:01,≥ 20 µM
WASGVPAAT,Kd,HLA-A*02:03; [1],≥ 20 µM
same,Kd,HLA-B*18:01; [1],≥ 20 µM
same,Kd,HLA-A*02:11; [1],≥ 20 µM
same,Kd,HLA-B*57:01; [1],≥ 20 µM
same,Kd,HLA-A*02:01; [1],≥ 20 µM
same,Kd,HLA-B*46:01; [1],≥ 20 µM
same,Kd,HLA-B*27:03; [1],≥ 20 µM
same,Kd,HLA-B*35:01,0.317 µM
same,Kd,HLA-A*02:12; [1],≥ 20 µM
same,Kd,HLA-A*03:01; [1],≥ 20 µM
same,Kd,HLA-B*07:02,6.5 µM
same,Kd,HLA-A*29:02; [1],≥ 20 µM
same,Kd,HLA-A*02:16; [1],≥ 20 µM
same,Kd,HLA-A*24:03; [1],≥ 20 µM
same,Kd,HLA-A*26:01; [1],≥ 20 µM
same,Kd,HLA-B*39:01,≥ 20 µM
same,Kd,HLA-B*51:01; [1],≥ 20 µM
same,Kd,HLA-A*02:19; [1],≥ 20 µM
same,Kd,HLA-B*15:01; [1],≥ 20 µM
DHIPIINTL,Kd,HLA-A*02:03; [2],≥ 20 µM
same,Kd,HLA-B*18:01; [2],≥ 20 µM
same,Kd,HLA-A*02:11; [2],≥ 20 µM
same,Kd,HLA-B*15:17,≥ 20 µM
same,Kd,HLA-B*57:01; [2],≥ 20 µM
same,Kd,HLA-A*02:01; [2],≥ 20 µM
same,Kd,HLA-B*46:01; [2],≥ 20 µM
same,Kd,HLA-B*27:03; [2],≥ 20 µM
same,Kd,HLA-A*02:12; [2],≥ 20 µM
same,Kd,HLA-A*03:01; [2],≥ 20 µM
same,Kd,HLA-A*29:02; [2],≥ 20 µM
same,Kd,HLA-A*02:16; [2],≥ 20 µM
same,Kd,HLA-A*68:02,≥ 20 µM
same,Kd,HLA-A*24:03; [2],≥ 20 µM
same,Kd,HLA-A*26:01; [2],≥ 20 µM
same,Kd,HLA-B*51:01; [2],≥ 20 µM
same,Kd,HLA-A*69:01,≥ 20 µM
same,Kd,HLA-A*02:19; [2],≥ 20 µM
same,Kd,HLA-B*15:01; [2],≥ 20 µM
